# T1: Fibroblast growth factor (FGF)-inducible 14 (Fn14) (UniProt Q9NP84 28-129, limits assumed)
# T1 sequence (looked up): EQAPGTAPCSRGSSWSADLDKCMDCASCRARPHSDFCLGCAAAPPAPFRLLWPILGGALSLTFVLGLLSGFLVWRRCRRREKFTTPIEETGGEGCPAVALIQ
# B1: 18D1-(3) (antibody)
# heavy: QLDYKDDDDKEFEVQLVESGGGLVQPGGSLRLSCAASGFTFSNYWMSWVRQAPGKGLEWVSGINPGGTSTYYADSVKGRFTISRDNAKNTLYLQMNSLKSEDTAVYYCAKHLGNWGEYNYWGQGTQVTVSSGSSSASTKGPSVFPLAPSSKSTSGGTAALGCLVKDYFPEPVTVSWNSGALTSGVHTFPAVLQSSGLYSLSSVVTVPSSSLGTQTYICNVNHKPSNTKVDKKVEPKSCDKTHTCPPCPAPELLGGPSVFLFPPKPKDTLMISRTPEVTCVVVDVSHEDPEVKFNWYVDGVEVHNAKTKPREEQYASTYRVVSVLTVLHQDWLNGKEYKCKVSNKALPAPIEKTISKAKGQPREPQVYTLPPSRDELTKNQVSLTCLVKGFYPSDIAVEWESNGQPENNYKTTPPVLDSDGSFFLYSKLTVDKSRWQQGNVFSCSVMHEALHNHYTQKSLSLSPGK
# light: QLDYKDDDDKEFQSALTQPPSVSGSPGKTVTISCAGTGGDVGYRNSVSWYQQLPGMAPKLLIYDVDKRASGITDRFSGSKSGDTASLTISGVQSEDEADYYCASQRSGIAAVFGGGTHLTVLGGSEIKRTVAAPSVFIFPPSDEQLKSGTASVVCLLNNFYPREAKVQWKVDNALQSGNSQESVTEQDSKDSTYSLSSTLTLSKADYEKHKVYACEVTHQGLSSPVTKSFNRGECLEEVQLVESGGGLVQPGGSLRLSCAASGFTFSNYWMSWVRQAPGKGLEWVSGINPGGTSTYYADSVKGRFTISRDNAKNTLYLQMNSLKSEDTAVYYCAKHLGNWGEYNYWGQGTQVTVSSRSSTKGPKLEEGEFSEAQLQSALTQPPSVSGSPGKTVTISCAGTGGDVGYRNSVSWYQQLPGMAPKLLIYDVDKRASGITDRFSGSKSGDTASLTISGVQSEDEADYYCASQRSGIAAVFGGGTHLTVLG
# B2: 18D1-(4) (antibody)
# heavy: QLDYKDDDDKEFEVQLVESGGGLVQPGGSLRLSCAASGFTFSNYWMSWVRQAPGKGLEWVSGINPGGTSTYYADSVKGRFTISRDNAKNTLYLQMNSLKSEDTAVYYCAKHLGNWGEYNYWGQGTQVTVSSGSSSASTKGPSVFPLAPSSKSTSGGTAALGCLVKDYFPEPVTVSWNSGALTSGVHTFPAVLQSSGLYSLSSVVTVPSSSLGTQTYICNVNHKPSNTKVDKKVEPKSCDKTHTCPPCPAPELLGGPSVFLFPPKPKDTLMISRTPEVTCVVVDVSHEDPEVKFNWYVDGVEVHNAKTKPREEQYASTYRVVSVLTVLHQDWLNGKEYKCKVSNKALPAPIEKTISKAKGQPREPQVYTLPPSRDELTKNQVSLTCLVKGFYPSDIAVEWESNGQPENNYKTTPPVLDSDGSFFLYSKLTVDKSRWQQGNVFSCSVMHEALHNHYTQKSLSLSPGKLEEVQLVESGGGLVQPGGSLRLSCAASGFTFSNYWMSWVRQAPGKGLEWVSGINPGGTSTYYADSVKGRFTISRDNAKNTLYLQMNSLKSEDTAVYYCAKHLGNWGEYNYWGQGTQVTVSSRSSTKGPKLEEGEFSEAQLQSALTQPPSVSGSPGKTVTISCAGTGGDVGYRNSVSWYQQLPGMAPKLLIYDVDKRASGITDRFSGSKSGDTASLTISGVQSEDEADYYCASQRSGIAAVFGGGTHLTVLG
# light: B1 light
# B3: 18D1-(7) (antibody)
# heavy: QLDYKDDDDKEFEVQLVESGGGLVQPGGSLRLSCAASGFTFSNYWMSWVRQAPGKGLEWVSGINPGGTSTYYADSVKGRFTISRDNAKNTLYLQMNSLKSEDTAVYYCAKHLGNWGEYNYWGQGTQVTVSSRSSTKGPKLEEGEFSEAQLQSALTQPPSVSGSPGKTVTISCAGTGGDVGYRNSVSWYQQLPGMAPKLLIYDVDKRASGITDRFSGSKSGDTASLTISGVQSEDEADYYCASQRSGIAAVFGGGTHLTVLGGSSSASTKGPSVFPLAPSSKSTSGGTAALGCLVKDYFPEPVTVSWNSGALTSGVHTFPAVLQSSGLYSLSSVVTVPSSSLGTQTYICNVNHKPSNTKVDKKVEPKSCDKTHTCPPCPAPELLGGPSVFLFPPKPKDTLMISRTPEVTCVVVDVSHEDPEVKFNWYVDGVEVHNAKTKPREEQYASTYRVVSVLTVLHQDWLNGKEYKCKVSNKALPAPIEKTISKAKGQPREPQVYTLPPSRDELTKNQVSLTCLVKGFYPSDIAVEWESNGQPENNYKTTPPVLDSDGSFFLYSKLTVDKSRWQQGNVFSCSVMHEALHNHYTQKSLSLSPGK
# light: QLDYKDDDDKEFEVQLVESGGGLVQPGGSLRLSCAASGFTFSNYWMSWVRQAPGKGLEWVSGINPGGTSTYYADSVKGRFTISRDNAKNTLYLQMNSLKSEDTAVYYCAKHLGNWGEYNYWGQGTQVTVSSRSSTKGPKLEEGEFSEAQLQSALTQPPSVSGSPGKTVTISCAGTGGDVGYRNSVSWYQQLPGMAPKLLIYDVDKRASGITDRFSGSKSGDTASLTISGVQSEDEADYYCASQRSGIAAVFGGGTHLTVLGGSEIKRTVAAPSVFIFPPSDEQLKSGTASVVCLLNNFYPREAKVQWKVDNALQSGNSQESVTEQDSKDSTYSLSSTLTLSKADYEKHKVYACEVTHQGLSSPVTKSFNRGECLEEVQLVESGGGLVQPGGSLRLSCAASGFTFSNYWMSWVRQAPGKGLEWVSGINPGGTSTYYADSVKGRFTISRDNAKNTLYLQMNSLKSEDTAVYYCAKHLGNWGEYNYWGQGTQVTVSSRSSTKGPKLEEGEFSEAQLQSALTQPPSVSGSPGKTVTISCAGTGGDVGYRNSVSWYQQLPGMAPKLLIYDVDKRASGITDRFSGSKSGDTASLTISGVQSEDEADYYCASQRSGIAAVFGGGTHLTVLG
# B4: 18D1-(8) (antibody)
# heavy: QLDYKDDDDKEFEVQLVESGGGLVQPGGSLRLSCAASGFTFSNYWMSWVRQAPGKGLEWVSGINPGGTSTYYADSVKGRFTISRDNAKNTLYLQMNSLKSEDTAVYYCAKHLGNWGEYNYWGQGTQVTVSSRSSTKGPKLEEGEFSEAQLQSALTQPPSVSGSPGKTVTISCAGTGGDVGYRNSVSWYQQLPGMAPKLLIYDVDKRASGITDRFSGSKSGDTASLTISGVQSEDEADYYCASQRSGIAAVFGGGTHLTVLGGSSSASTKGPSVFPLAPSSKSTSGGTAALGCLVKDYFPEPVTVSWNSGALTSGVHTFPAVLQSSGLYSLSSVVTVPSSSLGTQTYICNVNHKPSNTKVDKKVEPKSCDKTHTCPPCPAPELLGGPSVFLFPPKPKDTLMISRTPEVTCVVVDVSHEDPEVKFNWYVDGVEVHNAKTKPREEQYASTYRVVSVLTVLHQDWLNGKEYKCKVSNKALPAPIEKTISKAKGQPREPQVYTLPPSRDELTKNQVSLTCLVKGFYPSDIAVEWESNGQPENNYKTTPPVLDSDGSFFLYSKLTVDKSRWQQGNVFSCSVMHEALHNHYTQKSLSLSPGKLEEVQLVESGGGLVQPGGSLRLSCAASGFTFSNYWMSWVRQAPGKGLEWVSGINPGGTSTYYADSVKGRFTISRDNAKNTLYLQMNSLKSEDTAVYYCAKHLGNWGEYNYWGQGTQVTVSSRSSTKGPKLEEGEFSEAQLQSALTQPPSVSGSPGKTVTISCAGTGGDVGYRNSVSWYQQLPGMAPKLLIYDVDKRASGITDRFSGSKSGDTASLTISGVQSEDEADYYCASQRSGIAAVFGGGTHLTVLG
# light: B3 light
# B5: 18D1-(2) (antibody)
# heavy: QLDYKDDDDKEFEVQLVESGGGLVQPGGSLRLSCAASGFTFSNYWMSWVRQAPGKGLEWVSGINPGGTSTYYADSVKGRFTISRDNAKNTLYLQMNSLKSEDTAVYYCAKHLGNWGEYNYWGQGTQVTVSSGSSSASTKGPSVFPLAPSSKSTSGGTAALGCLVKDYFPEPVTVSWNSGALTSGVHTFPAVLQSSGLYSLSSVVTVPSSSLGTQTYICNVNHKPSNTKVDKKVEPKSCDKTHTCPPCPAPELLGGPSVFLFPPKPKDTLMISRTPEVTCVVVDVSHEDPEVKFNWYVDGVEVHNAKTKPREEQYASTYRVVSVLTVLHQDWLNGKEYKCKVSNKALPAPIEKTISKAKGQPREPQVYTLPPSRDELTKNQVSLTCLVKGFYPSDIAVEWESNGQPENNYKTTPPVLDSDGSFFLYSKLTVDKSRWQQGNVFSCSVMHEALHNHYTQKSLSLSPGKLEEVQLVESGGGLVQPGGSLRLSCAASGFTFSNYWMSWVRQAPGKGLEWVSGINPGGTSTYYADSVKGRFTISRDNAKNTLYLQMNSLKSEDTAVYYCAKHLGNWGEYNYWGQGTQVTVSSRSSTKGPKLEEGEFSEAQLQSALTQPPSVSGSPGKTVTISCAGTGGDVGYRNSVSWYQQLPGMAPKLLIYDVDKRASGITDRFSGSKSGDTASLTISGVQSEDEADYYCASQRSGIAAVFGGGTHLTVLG
# light: QLDYKDDDDKEFQSALTQPPSVSGSPGKTVTISCAGTGGDVGYRNSVSWYQQLPGMAPKLLIYDVDKRASGITDRFSGSKSGDTASLTISGVQSEDEADYYCASQRSGIAAVFGGGTHLTVLGGSEIKRTVAAPSVFIFPPSDEQLKSGTASVVCLLNNFYPREAKVQWKVDNALQSGNSQESVTEQDSKDSTYSLSSTLTLSKADYEKHKVYACEVTHQGLSSPVTKSFNRGEC
# B6: 18D1-(5) (antibody)
# heavy: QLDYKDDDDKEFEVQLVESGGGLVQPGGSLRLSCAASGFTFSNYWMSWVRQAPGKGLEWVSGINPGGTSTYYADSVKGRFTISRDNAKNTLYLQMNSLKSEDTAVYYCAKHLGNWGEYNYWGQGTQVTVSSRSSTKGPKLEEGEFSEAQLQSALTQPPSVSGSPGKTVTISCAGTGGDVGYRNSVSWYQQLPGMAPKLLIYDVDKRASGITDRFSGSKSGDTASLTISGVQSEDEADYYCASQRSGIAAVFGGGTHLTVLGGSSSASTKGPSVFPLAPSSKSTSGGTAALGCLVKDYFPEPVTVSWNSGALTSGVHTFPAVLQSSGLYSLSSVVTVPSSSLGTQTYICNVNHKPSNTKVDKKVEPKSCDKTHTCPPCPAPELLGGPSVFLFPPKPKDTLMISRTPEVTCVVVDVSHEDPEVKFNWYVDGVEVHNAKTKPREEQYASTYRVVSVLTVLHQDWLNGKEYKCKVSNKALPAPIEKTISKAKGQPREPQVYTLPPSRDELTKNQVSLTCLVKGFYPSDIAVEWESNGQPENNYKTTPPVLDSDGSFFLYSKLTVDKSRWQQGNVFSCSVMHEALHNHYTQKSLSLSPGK
# light: QLDYKDDDDKEFEVQLVESGGGLVQPGGSLRLSCAASGFTFSNYWMSWVRQAPGKGLEWVSGINPGGTSTYYADSVKGRFTISRDNAKNTLYLQMNSLKSEDTAVYYCAKHLGNWGEYNYWGQGTQVTVSSRSSTKGPKLEEGEFSEAQLQSALTQPPSVSGSPGKTVTISCAGTGGDVGYRNSVSWYQQLPGMAPKLLIYDVDKRASGITDRFSGSKSGDTASLTISGVQSEDEADYYCASQRSGIAAVFGGGTHLTVLGGSEIKRTVAAPSVFIFPPSDEQLKSGTASVVCLLNNFYPREAKVQWKVDNALQSGNSQESVTEQDSKDSTYSLSSTLTLSKADYEKHKVYACEVTHQGLSSPVTKSFNRGEC
# B7: 18D1-(6) (antibody)
# heavy: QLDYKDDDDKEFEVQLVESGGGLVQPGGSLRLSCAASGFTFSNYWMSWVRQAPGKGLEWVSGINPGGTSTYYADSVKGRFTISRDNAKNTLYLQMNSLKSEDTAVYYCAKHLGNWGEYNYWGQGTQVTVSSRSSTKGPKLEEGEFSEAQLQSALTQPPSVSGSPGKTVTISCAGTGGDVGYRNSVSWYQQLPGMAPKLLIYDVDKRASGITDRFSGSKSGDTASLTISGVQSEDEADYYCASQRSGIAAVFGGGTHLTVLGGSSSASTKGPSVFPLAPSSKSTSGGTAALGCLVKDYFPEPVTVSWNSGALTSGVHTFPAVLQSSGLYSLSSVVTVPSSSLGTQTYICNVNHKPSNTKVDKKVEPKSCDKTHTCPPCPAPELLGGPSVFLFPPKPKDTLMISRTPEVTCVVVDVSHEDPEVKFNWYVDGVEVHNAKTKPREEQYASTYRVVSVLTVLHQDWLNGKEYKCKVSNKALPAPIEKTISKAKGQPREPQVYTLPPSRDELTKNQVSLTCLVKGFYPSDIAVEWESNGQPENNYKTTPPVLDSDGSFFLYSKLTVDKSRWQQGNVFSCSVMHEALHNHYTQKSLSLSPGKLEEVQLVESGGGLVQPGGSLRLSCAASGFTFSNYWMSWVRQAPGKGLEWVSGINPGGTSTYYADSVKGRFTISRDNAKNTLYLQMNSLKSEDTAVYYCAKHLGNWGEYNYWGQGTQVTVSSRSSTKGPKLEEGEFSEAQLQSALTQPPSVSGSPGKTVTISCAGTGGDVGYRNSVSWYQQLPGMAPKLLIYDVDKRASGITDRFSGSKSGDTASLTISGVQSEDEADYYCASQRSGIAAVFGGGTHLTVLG
# light: B6 light
# Molecular target: T1, Fibroblast growth factor …
# Assay: cell-based or functional assay
"p100 processing (western blot), starting concentration [ng/mL]",Binder,"enhancement of TNF-induced toxicity (HeLa-RIPK3-FADDKO cells, 1 ng/ml TNF), ED50 [ng/mL]"
~20,B1,< 100
~20,B2,< 100
~200,B3,< 100
~200,B4,< 100
~20,B5,< 100
~200,B6,< 100
~200,B7,< 100

# — US20250277046A1 (JULIUS MAXIMILIANS UNIVERSIT T W RZBURG, published 2025)
